Patent US7141434B2, “Methods of identifying compounds that modulate IL-4 receptor-mediated IgE synthesis utilizing an adenosine kinase” (Rigel Pharmaceuticals, Inc., priority 2002, dated 2006)

How the values were obtained:
human AK (hAK) = target: T1, human AK (hAK) (Homo sapiens, UniProt P55263); experiment: β-galactosidase yeast two hybrid (YTH) interaction assay; format: binding; settings: qualitative
T1 construct: expressed in transfected cells; prey cDNA from the A5T4 reporter cell line (derived from BJAB B-cells)
T1 sequence (P55263 whole entry): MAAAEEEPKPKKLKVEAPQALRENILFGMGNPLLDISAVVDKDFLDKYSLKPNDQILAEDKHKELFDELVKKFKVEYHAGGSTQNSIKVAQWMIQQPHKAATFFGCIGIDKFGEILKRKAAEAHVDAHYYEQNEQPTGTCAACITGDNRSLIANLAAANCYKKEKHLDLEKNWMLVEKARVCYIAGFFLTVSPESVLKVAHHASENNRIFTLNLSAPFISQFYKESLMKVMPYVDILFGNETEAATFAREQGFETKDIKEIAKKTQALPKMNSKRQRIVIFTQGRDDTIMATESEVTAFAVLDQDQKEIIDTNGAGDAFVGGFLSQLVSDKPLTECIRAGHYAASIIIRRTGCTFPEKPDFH
Procedure: Potential binding partners for peptide AR02E8 wt were identified in a β-galactosidase yeast two-hybrid (YTH) assay using peptide AR02E8 wt as bait and a cDNA library constructed from the A5T4 reporter cell line as prey. Binding was assessed by β-galactosidase quantification using BetaFluor (Novagen) as a substrate. A negative interaction control (no cDNA fused downstream of the GAL4 activation domain sequence) was also run. A general outline of the YTH assay is illustrated in FIG. 5A. Following clustering, filtering to remove non-specific bait hits (e.g., GFP and BFP), singletons and clusters recognized by 10 or more cDNA baits (based upon historical YTH assays), and prioritization, 45 prey clones were identified as hits.
Potential targets identified in the YTH assay were reconfirmed as generally outlined in FIG. 6. The cDNA clones identified as hits in the YTH assay were purified and rescreened for interaction with the AR02E8 wt peptide in a YTH assay. The hit clones were also screened in a control assay for interaction with the BFP using a vector (pGBKT7) that contained only the BFP and not the AR02E8 peptide. At this stage, 27 putative target clones remained.
The interaction of AR02E8 wt peptide and its mutants with the clones identified as potential targets for the peptide AR02E8 wt was then quantified in a β-galactosidase YTH assay. The YTH assay was performed in the manner described above. A general outline of this YTH assay is illustrated in FIG. 5B. For each clone tested, an interaction profile was developed by comparing the β-galactosidase activity of each mutant to that of the wild type peptide as described above.
The interaction of these IOF, ROF and LOF mutants with different polypeptides encoded by the putative target clones were quantified using the YTH assay described above. […]

[1] = system: IL-4 induced germline ε transcription (ε promoter reporter in A5T4 cells); experiment: Re-infection of naive A5T4 reporter cells with BFP-peptide fusion (GFP reporter ratio); format: cell-based, human; settings: based on reporter ratio; % change calculated after subtracting 1.0 from the ratios
Procedure: The ability of peptide AR02E8 wt to inhibit germline ε transcription was confirmed in naive cells. Briefly, Phoenix cells were transfected with a retroviral vector encoding a BFP-AR02E8 wt peptide fusion as described in WO 99/58663 and WO 97/27213. Naïve A5T4 cells were infected with the resultant virions and grown for 3 days. The infected cells were stimulated with IL-4 (60 U/mL) and, after 3 days, the cells were assessed by FACS for BFP and GFP. […] The BFP fluorescence data corresponding to the BFP^+ and BFP^− populations are provided in Panel A. The GFP fluorescence data corresponding to the BFP^+ and BFP-populations are presented in Panel B. The reporter ratio for this purpose is determined as the geometric mean of the GFP fluorescence of the BFP^− population divided by the geometric mean of the GFP fluorescence of the BFP^+ population. The reporter ratio for the AR02E8 in this re-infection assay was 2.93. […]
TABLE 2 depicts the amino acid sequences (the dual alanine/glycine mutations are underlined) of the mutants tested and the measured reporter ratios when screening in the A5T4 reporter line.

[2] = system: ST486 endogenous α promoter; experiment: TAQMAN assay of endogenous germline α promoter transcription in ST486 cells; format: cell-based; settings: ST486 cells stimulated with TGF-β 40 ng/ml; average of 3 values; p=0.1120
Procedure: The assay was similar to that described in the immediately preceding section, except that ST486 cells (ATCC # CRL-1647) engineered to express the tetracycline-regulated transactivator were infected and the infected cells were stimulated with TGF-β (40 ng/ml; Peprotech). The primers and probe, which are specific for the transcription product driven by the ST486 endogenous α promoter, were as follows (the probe was labeled at the 5′-end with Fam and at the 3′-end with Tamra): […]

| Sequence | binding to human AK in yeast two hybrid interaction assay (human AK (hAK)) | functional category as compared to the wild type peptide [1] | endogenous α inhibition ratio [2] |
| --- | --- | --- | --- |
| DTMQVQCGAGRSGYVVAFWDVGP (peptide encoded by synthetic oligomer) [AR02E8VC, dual alanine/glycine mutant of AR02E8 wt] | found to bind human AK (hAK) | – | – |
| DTMQVQCGVCAGGYVVAFWDVGP (peptide encoded by synthetic oligomer) [AR02E8RS, dual alanine/glycine mutant of AR02E8 wt] | found to bind human AK (hAK) | – | – |
| DTMQVQCGVCRSGAGVAFWDVGP (peptide encoded by synthetic oligomer) [AR02E8YV, dual alanine/glycine mutant of AR02E8 wt, loss of function] | – | LOF (Cells expressing a loss of function (LOF) mutant have a reporter ratio of <1.11) | – |
| DTMQVQCGVCRSGYVVAFWDVGP (peptide encoded by synthetic oligomer) [AR02E8 wt, 23-residue peptide from a random retroviral library, expressed as BFP-peptide fusion] | found to bind human AK (hAK) | – | 0.79 |
